Experimental data taken from publication PMC5449603.
Where two headings read alike, the source gives them in different places.

T1: Sub1 (Saccharomyces cerevisiae, UniProt P54000 1-292)
T1 sequence: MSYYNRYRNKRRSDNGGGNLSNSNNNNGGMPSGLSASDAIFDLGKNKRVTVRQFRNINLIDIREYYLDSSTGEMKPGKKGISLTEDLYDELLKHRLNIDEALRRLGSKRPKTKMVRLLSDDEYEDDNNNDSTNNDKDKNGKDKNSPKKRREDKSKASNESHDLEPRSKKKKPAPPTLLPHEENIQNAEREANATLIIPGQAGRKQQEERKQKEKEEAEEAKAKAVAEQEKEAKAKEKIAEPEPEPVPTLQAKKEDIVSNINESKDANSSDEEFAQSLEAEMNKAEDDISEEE


How the values were obtained:
Assay in all cases: fluorescence anisotropy
PC4 (hSub1, p15) = PC4 (hSub1, p15) (human, UniProt P53999 1-127)
Sub1 [1] = target: T1, Sub1
Sub1 [2] = target: T1, Sub1; remark: listed apart in the source

Binder | Kd (PC4 (hSub1, p15)) [nM] | binding result (Sub1 [1]) | Kd (Sub1 [2]) [nM] | Kd (Sub1 [1]) [nM]
Duplex (FAM) (dsDNA) DNA 1: GATACTATTGGGTGGGTAGGGTGGGTTTACATGT DNA 2: ACATGTAAACCCACCCTACCCACCCAATAGTATC | 38.7 ± 8 | no binding |  | 
GGTGTGTGGAGCGTGCGTTT (ssDNA) [ssDNA (FAM)] | 9 ± 0.9 |  | 21.2 ± 1.1 | 
GAGCTGGGGTGAGCTGGGCTGAGCTGGGGTGAGCTGGGCTGAGCT (structured_DNA) [SµG (FAM)] |  |  |  | 8.7 ± 1.7
